Biological target: T1, Hormad1 peptide on HLA-A*02:01 (human)
T1 peptide: YLDDLCVKI
Test: multimer staining

B1: Hormad1 CTL A12 TCR (TRAV4*01 F, TRBV13*01 F) (TCR, V domains shown)
Valpha: LAKTTQPISMDSYEGQEVNITCSHNNIATNDYITWYQQFPSQGPRFIIQGYKTKVTNEVASLFIPADRKSSTLSLPRVSLSDTAVYYCLVGARGTALIFGKGTTLSVSS
Vbeta: AAGVIQSPRHLIKEKRETATLKCYPIPRHDTVYWYQQGPGQDPQFLISFYEKMQSDKGSIPDRFSAQQFSDYHSELNMSSLELGDSALYFCASSPTGQGSYEQYFGPGTRLTVT
- binding result: recognises
